Target: T1, tumor necrosis factor receptor-associated factor 2 (TRAF2) fused to CFP, YFP or mRFP, Q12933
T1 chain: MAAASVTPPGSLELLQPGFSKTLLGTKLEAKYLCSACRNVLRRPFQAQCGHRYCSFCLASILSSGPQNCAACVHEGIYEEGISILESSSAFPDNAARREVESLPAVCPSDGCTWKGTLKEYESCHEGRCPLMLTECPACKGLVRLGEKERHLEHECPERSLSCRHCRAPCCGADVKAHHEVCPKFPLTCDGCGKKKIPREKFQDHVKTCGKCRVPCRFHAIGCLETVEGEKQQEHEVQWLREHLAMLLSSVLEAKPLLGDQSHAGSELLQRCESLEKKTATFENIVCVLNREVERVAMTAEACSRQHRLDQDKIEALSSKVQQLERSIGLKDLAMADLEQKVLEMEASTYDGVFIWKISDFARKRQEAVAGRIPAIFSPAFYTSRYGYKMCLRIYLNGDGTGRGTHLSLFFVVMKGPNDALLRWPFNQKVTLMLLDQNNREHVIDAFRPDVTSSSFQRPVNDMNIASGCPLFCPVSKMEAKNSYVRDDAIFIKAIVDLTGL
Test: FRET or BRET
Details: remark: other sources report otherwise

B1: tumor necrosis factor receptor-associated factor 2 (TRAF2) fused to CFP, YFP or mRFP, Q12933 1-501 (natural protein)
chain: T1 chain
FRET1 (CFP→YFP) MFI, cells with CFP-TRAF2, YFP-TRAF2 and mRFP: 10.9 MFI
FRET3 (CFP→mRFP) MFI, cells with CFP-TRAF2, YFP and mRFP-TRAF2: 32.7 MFI
stoichiometry N: 3
two-step FRET (CFP→YFP→mRFP) MFI, cells with CFP-TRAF2, YFP-TRAF2 and mRFP-TRAF2: 58.6 MFI
